Three molecules from paper PMC12559229, “Conserved hydrophilic checkpoints tune FocA-mediated formate:H^+ symport” (Nature Communications, 2025) can be followed below.

For data set [1], the target named is T1, Pyruvate formate-lyase (PflB), full length, His-tagged (E. coli, UniProt P09373 1-760).
T1 construct: Pyruvate formate-lyase PflB, E. coli, UniProt P09373, full length; also called His-tagged PflB
T1 sequence (looked up): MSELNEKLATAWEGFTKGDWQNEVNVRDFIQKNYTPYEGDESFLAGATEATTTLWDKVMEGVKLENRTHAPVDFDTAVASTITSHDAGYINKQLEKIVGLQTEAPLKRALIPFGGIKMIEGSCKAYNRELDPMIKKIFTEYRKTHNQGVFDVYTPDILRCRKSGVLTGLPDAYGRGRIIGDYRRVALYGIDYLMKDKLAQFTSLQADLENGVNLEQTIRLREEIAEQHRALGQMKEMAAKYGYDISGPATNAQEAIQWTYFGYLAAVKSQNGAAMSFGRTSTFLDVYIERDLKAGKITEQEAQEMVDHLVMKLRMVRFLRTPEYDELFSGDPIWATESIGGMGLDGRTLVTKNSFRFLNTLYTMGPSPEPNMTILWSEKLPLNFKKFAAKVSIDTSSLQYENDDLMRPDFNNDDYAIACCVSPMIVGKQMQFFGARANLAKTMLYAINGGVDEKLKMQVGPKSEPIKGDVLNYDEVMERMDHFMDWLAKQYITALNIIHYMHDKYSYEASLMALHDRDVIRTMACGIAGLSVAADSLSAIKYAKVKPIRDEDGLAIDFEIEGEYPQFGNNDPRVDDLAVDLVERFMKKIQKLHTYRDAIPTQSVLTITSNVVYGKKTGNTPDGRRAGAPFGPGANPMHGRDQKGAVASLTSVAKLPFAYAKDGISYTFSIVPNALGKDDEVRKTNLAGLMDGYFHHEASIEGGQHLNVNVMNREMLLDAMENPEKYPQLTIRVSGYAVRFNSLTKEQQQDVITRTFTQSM
Briefly: cross-linking; XL-MS with DSBU: 10 uM PflB with equimolar FocA N-terminal peptide, 50- or 100-fold DSBU, 30 min, room temperature, 100 mM MOPS, 150 mM NaCl, pH 7.0; digest with trypsin and GluC, LC/MS/MS. Particulars: both partners purified.

Data set [2] deals with the molecule itself. Briefly: cryo-EM structure; purified StrepII-tagged FocA solubilised in DDM, 5 mg/mL, vitrified at 4 °C; single-particle reconstruction with C5 symmetry (wild type also C1).
Data set [3] concerns the target T1, Pyruvate formate-lyase (PflB), full …. The data set is described as follows: cross-linking; XL-MS with sulfo-SDA: 10 uM FocA modified with 50-fold sulfo-SDA (100 mM MOPS, 150 mM NaCl, DDM, pH 7.0), then mixed with 10 uM PflB and UV-irradiated (365 nm); digest with trypsin and GluC, LC/MS/MS. Particulars: both partners purified.

Numbering of substitutions follows the chain as printed. In names and notes the source's numbering stands. Ends that are not written are not given here. GS linker = not defined here

B1: FocA N-terminal peptide (residues 1-35 of FocA, GS linker, Strep-II tag) (peptide)
peptide: MKADNPFDLLLPAAMAKVAEEAGVYKATKHPLKTF-{GS linker-Strep‑II tag}
modifications: reading uncertain
notes: FocA, E. coli, residues 1-35 (the N-terminus of FocA); Whole peptide as printed, 45 residues: [residues removed]; also called N-terminal FocA peptide (1-45); N-terminal peptide of FocA; source: synthetic peptide (Thermo Fisher); not shown: StrepII (after a GS linker), C-terminal, kept
As to B1, the binding result in data set [1] is reported as “binds”.

B2: FocA (formate channel), wild type, full length, C-terminal StrepII-tag (natural protein, E. coli, UniProt P0AC23 1-285, looked up)
chain: MKADNPFDLLLPAAMAKVAEEAGVYKATKHPLKTFYLAITAGVFISIAFVFYITATTGTGTMPFGMAKLVGGICFSLGLILCVVCGADLFTSTVLIVVAKASGRITWGQLAKNWLNVYFGNLVGALLFVLLMWLSGEYMTANGQWGLNVLQTADHKVHHTFIEAVCLGILANLMVCLAVWMSYSGRSLMDKAFIMVLPVAMFVASGFEHSIANMFMIPMGIVIRDFASPEFWTAVGSAPENFSHLTVMNFITDNLIPVTIGNIIGGGLLVGLTYWVIYLRENDHH
notes: FocA, formate channel of the formate-nitrite transporter family, E. coli, UniProt P0AC23, full length; Pentamer in the cryo-EM structure; In the sulfo-SDA experiment FocA was first modified on amines with sulfo-SDA; also called native FocA; wild-type FocA; source: E. coli BL21(DE3) transformed with pfocA3; solubilised from membranes with DDM, purified (Strep-Tactin Sepharose); not shown: StrepII, …
Take B2: the “stoichiometry N” value in data set [2] stood at 5. Also, in data set [3], the binding result is recorded as “binds”.

B3: FocA-H209N variant, C-terminal StrepII-tag (natural protein, E. coli, UniProt P0AC23 1-285, looked up)
chain: B2 chain with H209N
notes: FocA, E. coli, UniProt P0AC23, with the exchange H209N; made by mutagenesis of pfocA3, which carries the native focA gene; Reconstructed with C5 symmetry; also called H209N-FocA; source: E. coli BL21(DE3) transformed with pfocAH209N; solubilised from membranes with DDM, purified (Strep-Tactin Sepharose); not shown: StrepII, C-terminal, kept
On to B3, for which, in data set [2], the binding result is recorded as “binds”.
